# Assay results as given in IntAct's records for PubMed 19805280.
# B1: Protein DOA1 (Saccharomyces cerevisiae), P36037 (parent)
# chain: MGYQLSATLKGHDQDVRDVVAVDDSKVASVSRDGTVRLWSKDDQWLGTVVYTGQGFLNSVCYDSEKELLLFGGKDTMINGVPLFATSGEDPLYTLIGHQGNVCSLSFQDGVVISGSWDKTAKVWKEGSLVYNLQAHNASVWDAKVVSFSENKFLTASADKTIKLWQNDKVIKTFSGIHNDVVRHLAVVDDGHFISCSNDGLIKLVDMHTGDVLRTYEGHESFVYCIKLLPNGDIVSCGEDRTVRIWSKENGSLKQVITLPAISIWSVDCMSNGDIIVGSSDNLVRIFSQEKSRWASEDEINELSTQVEKSTISSKTIEFDESKLSPYEILQSPGRKEGQIVVVKSPQGTIEAHQFSNSSWKKVGDVVGAGATGNDKKIEFEGKTYDYVFDVDIEDGKPPLKLPINVSDNPYTAADNFLARYELPMSYRDQVVQFILKNTNGISLDQPNDNASSSAVSPSKTSVMKVLPVKQYLIMENYNPDTIFNGIVKINSNEKTFDDEILAQIGGALHDIDESWELLLSFANTIRSNWEIKTPAYDIVRLIVKKLPYSSDIKDYIEEGLGNKNITLTMLTVRILVNCFNNENWGVKLLESNQVYKSIFETIDTEFSQASAKQSQNLAIAVSTLIFNYSALVTKGNSDLELLPIVADAINTKYGPLEEYQECEEAAYRLTVAYGNLATVEPTLRQFANSVTWLANIKRSYGNVPRFKDIFDDLS
# Variants of: B1
# Settings: with cdc48_yeast CDC48, P25694
# Sequence of cdc48_yeast CDC48, P25694 (P25694 whole entry): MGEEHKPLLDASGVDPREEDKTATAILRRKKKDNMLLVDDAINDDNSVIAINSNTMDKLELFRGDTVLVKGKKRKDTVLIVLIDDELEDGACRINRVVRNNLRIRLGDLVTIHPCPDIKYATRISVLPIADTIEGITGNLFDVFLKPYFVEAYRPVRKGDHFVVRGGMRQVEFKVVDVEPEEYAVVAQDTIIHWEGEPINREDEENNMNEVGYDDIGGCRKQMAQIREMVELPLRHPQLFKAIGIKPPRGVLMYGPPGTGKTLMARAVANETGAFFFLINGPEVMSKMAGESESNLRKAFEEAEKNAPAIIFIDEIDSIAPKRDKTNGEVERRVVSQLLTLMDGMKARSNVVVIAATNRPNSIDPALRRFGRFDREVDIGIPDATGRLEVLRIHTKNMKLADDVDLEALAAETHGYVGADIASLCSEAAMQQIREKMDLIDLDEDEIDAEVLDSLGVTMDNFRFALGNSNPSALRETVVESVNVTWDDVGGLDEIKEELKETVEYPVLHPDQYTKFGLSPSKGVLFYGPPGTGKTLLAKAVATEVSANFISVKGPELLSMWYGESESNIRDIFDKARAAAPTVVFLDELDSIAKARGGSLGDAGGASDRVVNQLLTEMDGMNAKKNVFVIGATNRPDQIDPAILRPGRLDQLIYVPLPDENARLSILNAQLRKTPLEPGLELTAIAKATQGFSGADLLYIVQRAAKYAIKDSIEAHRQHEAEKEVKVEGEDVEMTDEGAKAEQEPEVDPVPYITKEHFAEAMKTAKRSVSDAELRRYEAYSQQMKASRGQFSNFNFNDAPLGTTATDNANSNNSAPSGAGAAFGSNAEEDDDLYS
row,effect of a mutation on the interaction,Variant
1,disrupting interaction,R541A
2,decreasing interaction,R669A
3,decreasing interaction,N578A

# Variants of: B1
# Settings: with cdc48_yeast CDC48, P25694
# Remark: another data set of the same source
row,effect of a mutation on the interaction,Variant
1,disrupting interaction,R541A;R669A
